From patent US20240229000A1, “METHODS AND COMPOSITIONS THEREOF FOR SITE-[…] LABELING OF HUMAN IgG BY PROXIMITY-BASED SORTASE-MEDIATED LIGATION” (THE TRUSTEES OF THE UNIVERSITY OF PENNSYLVANIA, priority 2021, published 2024)

Tested on: trastuzumab (HCLPETG+LC)
Test: Proximity-based sortase-mediated protein ligation (PBS-PL) heavy chain labeling with GGG-TAMRA
Assay type: biochemical
Conditions: 1 μg trastuzumab (HCLPETG+LC), 200 μM GGG-TAMRA, 37° C. overnight
Method: FIGS. 13A-13C show comparison of proximity-based sortase-mediated protein ligation with 1M SrtA versus traditional sortase labeling with the pentamutant SrtA. FIG. 13A: Heavy chain labeling of trastuzumab (HCLPETG+LC) was carried out by titrating 5M SrtA (5M SrtA/antibody molar ratios ranging from 1:1 to 100:1) and comparing the labeling efficiency to that of 5M SrtA-pG, 1M SrtA-pZ, 1M SrtA-pG, and 1M pG-SrtA. […] Labeling efficiencies of 5M SrtA (FIG. 13B) and 1M SrtA-pZ (FIG. 13C) on the heavy chain were further compared by scaling the GGG-TAMRA concentration from 1-200 μM. Reaction conditions included: 1 μg trastuzumab (HCLPETG+LC), 500 μM CaCl2, 200 μM GGG-TAMRA, and 0.63 μM SrtA variant (1:1 molar ratio of 1M SrtA-pZ to antibody) in 10 mM Tris-HCl buffer (37° C. overnight). For all titration experiments, all other reactions conditions were held constant. Labeling efficiencies were determined by measuring the fluorescent intensity of the heavy chain band. For each experiment, these values were normalized against the maximum fluorescent intensity to compare across reaction conditions. One-way ANOVA was used to determine statistical significance (*P<0.05, n.s.=not significant), followed by Tukey's multiple comparisons test. Bar graphs are represented as average f SD. N=3 per reaction condition.

Chain of trastuzumab (HCLPETG+LC) (as listed by the source, other chains not shown): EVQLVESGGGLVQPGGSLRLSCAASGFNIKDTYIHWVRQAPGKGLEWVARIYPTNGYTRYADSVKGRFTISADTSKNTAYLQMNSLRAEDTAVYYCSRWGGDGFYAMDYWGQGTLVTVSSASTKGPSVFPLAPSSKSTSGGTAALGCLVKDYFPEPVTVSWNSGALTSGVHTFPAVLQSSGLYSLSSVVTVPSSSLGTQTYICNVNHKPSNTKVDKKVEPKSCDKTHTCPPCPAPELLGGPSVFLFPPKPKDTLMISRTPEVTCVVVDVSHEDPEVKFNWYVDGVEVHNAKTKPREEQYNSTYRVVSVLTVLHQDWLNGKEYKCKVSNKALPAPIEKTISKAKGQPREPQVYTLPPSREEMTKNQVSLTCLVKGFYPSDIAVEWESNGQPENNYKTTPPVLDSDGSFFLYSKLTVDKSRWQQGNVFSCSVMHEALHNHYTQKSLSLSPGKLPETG

B1: 5M SrtA-pG (protein)
chain: MQAKPQIPKDKSKVAGYIEIPDADIKEPVYPGPATREQLNRGVSFAEENESLDDQNISIAGHTFIDRPNYQFTNLKAAKKGSMVYFKVGNETRKYKMTSIRNVKPTAVEVLDEQKGKDKQLTLITCDDYNEETGVWETRKIFVATEVKGGSGGSMTFKLIINGKTLKGEITIEAVDAAEAEKIFKQYANDYGIDGEWTYDDATKTFTVTE
- heavy chain labeling efficiency of trastuzumab (HCLPETG+LC): did not label antibodies as efficiently as 1 M SrtA-pG and 1M SrtA-pZ
